Bridge positions count the residues as written; N and C are the ends. Square brackets hold non-standard residues; d marks the D form. * marks the point of attachment. DOTA = O=C(O)CN1CCN(CC(=O)O)CCN(CC(=O)*)CCN(CC(=O)O)CC1; Phe(4-CF3) = N[C@@H](Cc1ccc(C(F)(F)F)cc1)C(=O)O; Trp(5-F) = N[C@@H](Cc1c[nH]c2ccc(F)cc12)C(=O)O; 1Nal = N[C@@H](Cc1cccc2ccccc12)C(=O)O

As usually defined, the Kd is a measure of binding affinity in units of concentration. Low values mean tighter binding, high ones weaker binding.

Assay [1] deals with T1, Biotinylated human DLL3 (human, UniProt Q9NYJ7 27-492, biotinylated (site not stated)).
T1 construct: also called Delta-like ligand 3; Delta Like Canonical Notch Ligand 3
T1 sequence (looked up): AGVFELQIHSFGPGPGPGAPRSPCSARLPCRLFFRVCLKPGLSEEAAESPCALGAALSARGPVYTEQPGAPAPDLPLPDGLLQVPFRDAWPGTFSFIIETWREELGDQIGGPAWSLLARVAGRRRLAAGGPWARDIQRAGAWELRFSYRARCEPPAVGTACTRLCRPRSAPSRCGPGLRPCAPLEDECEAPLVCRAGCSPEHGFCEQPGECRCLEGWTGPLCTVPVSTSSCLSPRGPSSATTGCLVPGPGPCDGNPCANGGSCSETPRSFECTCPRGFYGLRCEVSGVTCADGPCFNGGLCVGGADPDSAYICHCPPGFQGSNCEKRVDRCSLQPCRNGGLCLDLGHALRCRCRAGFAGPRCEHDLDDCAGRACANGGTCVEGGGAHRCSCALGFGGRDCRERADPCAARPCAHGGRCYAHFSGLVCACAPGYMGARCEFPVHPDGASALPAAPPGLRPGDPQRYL
In words: SPR, biotin-hDLL3 on SA chip; Cpd 58, a separate compound.

Assay [2] has as its target T1, Biotinylated human DLL3. The experiment in a line: SPR, biotin-hDLL3 on SA chip; Cpd 59, a separate compound. On the technique in general: SPR reads the build-up and loss of mass on a sensor chip optically.
Assay [3] concerns the target T1, Biotinylated human DLL3. In words: SPR, biotin-hDLL3 on SA chip; Cpd 56, a separate compound.

In the assay with Biotinylated human DLL3 [1], Ac-MSDC[Trp(5-F)]LQWNCPFD[dK](DOTA)-NH2 (disulfide 4-10) [Cpd #58] yielded an equilibrium dissociation constant (Kd) of 42 nM.

B1: Cpd #59 (peptide)
peptide: Ac-MSDC[Phe(4-CF3)]LQWNCPFD[dK](DOTA)-NH2
modifications: disulfide 4-10
SMILES: CSCC[C@H](NC(C)=O)C(=O)N[C@@H](CO)C(=O)N[C@@H](CC(=O)O)C(=O)N[C@H]1CSSC[C@@H](C(=O)N2CCC[C@H]2C(=O)N[C@@H](Cc2ccccc2)C(=O)N[C@@H](CC(=O)O)C(=O)N[C@H](CCCCNC(=O)CN2CCN(CC(=O)O)CCN(CC(=O)O)CCN(CC(=O)O)CC2)C(N)=O)NC(=O)[C@H](CC(N)=O)NC(=O)[C@H](Cc2c[nH]c3ccccc23)NC(=O)[C@H](CCC(N)=O)NC(=O)[C@H](CC(C)C)NC(=O)[C@H](Cc2ccc(C(F)(F)F)cc2)NC1=O
B1 yielded a Kd with Biotinylated human DLL3 [2] of 149 nM. In other words, the sub-micromolar range.

B2: Cpd #56 (peptide)
peptide: Ac-MSDC[1Nal]LQWNCPFD[dK](DOTA)-NH2
modifications: disulfide 4-10
SMILES: CSCC[C@H](NC(C)=O)C(=O)N[C@@H](CO)C(=O)N[C@@H](CC(=O)O)C(=O)N[C@H]1CSSC[C@@H](C(=O)N2CCC[C@H]2C(=O)N[C@@H](Cc2ccccc2)C(=O)N[C@@H](CC(=O)O)C(=O)N[C@H](CCCCNC(=O)CN2CCN(CC(=O)O)CCN(CC(=O)O)CCN(CC(=O)O)CC2)C(N)=O)NC(=O)[C@H](CC(N)=O)NC(=O)[C@H](Cc2c[nH]c3ccccc23)NC(=O)[C@H](CCC(N)=O)NC(=O)[C@H](CC(C)C)NC(=O)[C@H](Cc2cccc3ccccc23)NC1=O
B2 came in with a Kd in the assay with Biotinylated human DLL3 [3] of 1.13 nM.

The values above are taken from patent publication US20250186541A1, “DLL3 TARGETING PEPTIDES AND CONSTRUCTS THEREOF” (MARIANA ONCOLOGY INC., priority 2023, published 2025).
